Measured values reported in PMC7411133, “Phosphorylations of the Abutilon Mosaic Virus Movement Protein Affect Its Self-Interaction, Symptom Development, Viral DNA Accumulation, and Host Range” (Frontiers in Plant Science, 2020).
Where a chain is given by its changes, count along the chain named. Names and notes keep the numbering of the source. “Also recorded” adds a separate entry of the source.

B1: AbMV movement protein, full-length, T221A/S223A/S250A (MP^AAA), fused to mVenus or mTurquoise2 (natural protein, Abutilon mosaic virus, UniProt P21946 1-293, looked up)
chain: MDSQLVNPPNAFNYIESHRDEYQLSHDLTEIILQFPSTAAQLTARLSRSCMKIDHCVIEYRQQVPINATGSVIVEIHDKRMTDNESLQASWTFPIRCNIDLHYFSASFFSLKDPIPWKLYYKVCDTNVHQRTHFAKFKGKLKLSTAKHSVDIPFRAPTVRILSKQFSEKDVDFSHVDYGKWERKPIRCASMSRIGLRGPIEIRPGESWASRSTIGTAQPDADAEMENELHPYRHLNRLGTSLLDPGESAAIVGDQRAEPNITMSMGQLNELVRTAVQECVNSNCQASQAKSLK
notes: Movement protein (MP; BC1) of Abutilon mosaic virus, full-length; Two copies expressed from one T-DNA (pFRETtv-2-in-1), one with mVenus and one with mTurquoise2, in four layouts (NN, NC, CN, CC); each copy carries one fluorescent protein at one end; also called mVenus::MP^AAA; MP^AAA::mVenus; source: N. benthamiana leaf epidermis, transiently expressed after agro-infiltration, in living cells; …
B2: AbMV movement protein, full-length, T221D/S223D/S250D (MP^DDD), fused to mVenus or mTurquoise2 (natural protein, Abutilon mosaic virus, UniProt P21946 1-293, looked up)
chain: B1 chain with A221D, A223D, A250D
notes: Movement protein (MP; BC1) of Abutilon mosaic virus, full-length; Two copies expressed from one T-DNA (pFRETtv-2-in-1), one with mVenus and one with mTurquoise2, in four layouts (NN, NC, CN, CC); each copy carries one fluorescent protein at one end; also called mVenus::MP^DDD; MP^DDD::mVenus; source: N. benthamiana leaf epidermis, transiently expressed after agro-infiltration, in living cells; …
B3: AbMV movement protein, full-length, wild type (MP^WT), fused to mVenus or mTurquoise2 (natural protein)
chain: B1 chain with A221T, A223S, A250S
notes: Movement protein (MP; BC1) of Abutilon mosaic virus, full-length; Two copies expressed from one T-DNA (pFRETtv-2-in-1), one with mVenus and one with mTurquoise2, in four layouts (NN, NC, CN, CC); each copy carries one fluorescent protein at one end; also called BC1; mVenus::MP^WT; source: N. benthamiana leaf epidermis, transiently expressed after agro-infiltration, in living cells; not shown: …

Experiments:
[1] = target: AbMV movement protein (MP; BC1) (UniProt P21946); assay: acceptor photobleaching FRET, tag layout NC; conditions: sites T221,S223,S250
[2] = target: the molecule itself; assay: FRET or BRET; acceptor photobleaching FRET in living N. benthamiana leaf epidermal cells, 3 dpai; acceptor mVenus, donor mTurquoise2; four layouts (NN, NC, CN, CC); without and with local AbMV (DNA-A + DNA-BΔMP) infection; ROIs along the plasma membrane; p19 co-infiltrated

Row | Molecule | other: mean FRET efficiency ([1]; reference: MPWT with MPWT) | other: mean FRET efficiency ([1]; reference: MPAAA with MPAAA) | mean FRET efficiency (layout NC, with AbMV) [2] | mean FRET efficiency (layout NC, without AbMV) [2]
1 | AbMV movement protein (MP; BC1) (from UniProt P21946) MPAAA with MPAAA | stronger; reference 36; also recorded: stronger; reference 28 |  |  | 
2 | AbMV movement protein (MP; BC1) (from UniProt P21946) MPDDD with MPDDD | same; reference 28 | weaker; reference 50; also recorded: weaker; reference 42 |  | 
3 | B1 |  |  | 42% | 50%
4 | B2 |  |  | 30% | 14%
5 | B3 |  |  | 28% | 36%
